# Laboratory results as given in PMC3944813.
# Biological target: NadRh from M. tuberculosis (NadR homolog) (M. tuberculosis)
# Experiment: SEC
substance,measurement,value
NadRh from M. tuberculosis (NadR homolog) (natural protein),stoichiometry N,2
